Here are results for one substance from US20210132068A1.

The experiment deals with CD20 on CD20+ Daudi lymphoma cells (UniProt P11836). As to the kind of experiment: flow cytometry on CD20+ Daudi lymphoma cells, 30 minutes at 4° C. (In general: Flow cytometry measures light scatter and fluorescence of single cells or particles in a stream.)
Sequence of UniProt P11836 (P11836 whole entry): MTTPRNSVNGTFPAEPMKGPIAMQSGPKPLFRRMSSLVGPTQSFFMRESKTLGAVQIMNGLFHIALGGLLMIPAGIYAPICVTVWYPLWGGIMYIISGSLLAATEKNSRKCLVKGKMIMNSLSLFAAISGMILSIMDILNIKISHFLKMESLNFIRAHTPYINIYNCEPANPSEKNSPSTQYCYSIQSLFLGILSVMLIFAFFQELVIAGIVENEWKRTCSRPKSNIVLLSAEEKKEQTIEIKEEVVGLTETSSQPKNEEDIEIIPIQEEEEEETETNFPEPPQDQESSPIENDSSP

For FITC-rituximab (antibody), the % positive cells was determined as 95%.
